Experimental findings from EP1516629B1 are described below.

One assay addresses T1, rhesus CD11a (rhesus) (UniProt H9Z8N3).
T1 sequence: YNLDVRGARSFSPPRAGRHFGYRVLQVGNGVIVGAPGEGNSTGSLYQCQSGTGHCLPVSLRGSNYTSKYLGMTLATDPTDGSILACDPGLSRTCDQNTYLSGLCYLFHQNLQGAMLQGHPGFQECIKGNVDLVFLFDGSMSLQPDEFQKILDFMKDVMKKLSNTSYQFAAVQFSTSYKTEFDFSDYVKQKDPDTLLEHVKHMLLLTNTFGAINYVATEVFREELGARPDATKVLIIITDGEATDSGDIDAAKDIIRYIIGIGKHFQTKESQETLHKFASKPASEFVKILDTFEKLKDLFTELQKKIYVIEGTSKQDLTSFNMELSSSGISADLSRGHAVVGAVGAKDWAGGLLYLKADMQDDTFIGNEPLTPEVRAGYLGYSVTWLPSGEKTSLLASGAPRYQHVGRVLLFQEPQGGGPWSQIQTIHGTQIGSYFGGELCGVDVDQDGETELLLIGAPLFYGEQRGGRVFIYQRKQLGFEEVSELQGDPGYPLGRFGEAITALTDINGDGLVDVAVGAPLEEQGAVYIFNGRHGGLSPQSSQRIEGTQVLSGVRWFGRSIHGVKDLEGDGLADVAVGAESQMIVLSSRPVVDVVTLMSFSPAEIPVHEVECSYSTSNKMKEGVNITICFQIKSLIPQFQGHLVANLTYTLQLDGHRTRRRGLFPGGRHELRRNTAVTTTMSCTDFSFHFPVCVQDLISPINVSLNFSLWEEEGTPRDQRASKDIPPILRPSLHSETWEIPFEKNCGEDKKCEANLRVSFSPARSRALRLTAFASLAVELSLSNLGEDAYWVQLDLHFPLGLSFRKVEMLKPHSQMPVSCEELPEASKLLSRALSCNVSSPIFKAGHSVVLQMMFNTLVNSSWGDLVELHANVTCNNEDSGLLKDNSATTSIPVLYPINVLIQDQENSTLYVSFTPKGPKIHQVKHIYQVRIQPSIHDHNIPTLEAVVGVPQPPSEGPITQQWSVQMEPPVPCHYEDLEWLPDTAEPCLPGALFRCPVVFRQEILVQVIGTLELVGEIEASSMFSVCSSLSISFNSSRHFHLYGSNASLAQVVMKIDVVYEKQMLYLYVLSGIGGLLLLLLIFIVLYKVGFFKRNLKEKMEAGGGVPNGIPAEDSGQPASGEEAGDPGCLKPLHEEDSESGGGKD
The experiment in a line: binding to rhesus peripheral blood lymphocytes.

In the next assay the target is T2, human CD11a (human) (UniProt P20701).
T2 sequence (looked up): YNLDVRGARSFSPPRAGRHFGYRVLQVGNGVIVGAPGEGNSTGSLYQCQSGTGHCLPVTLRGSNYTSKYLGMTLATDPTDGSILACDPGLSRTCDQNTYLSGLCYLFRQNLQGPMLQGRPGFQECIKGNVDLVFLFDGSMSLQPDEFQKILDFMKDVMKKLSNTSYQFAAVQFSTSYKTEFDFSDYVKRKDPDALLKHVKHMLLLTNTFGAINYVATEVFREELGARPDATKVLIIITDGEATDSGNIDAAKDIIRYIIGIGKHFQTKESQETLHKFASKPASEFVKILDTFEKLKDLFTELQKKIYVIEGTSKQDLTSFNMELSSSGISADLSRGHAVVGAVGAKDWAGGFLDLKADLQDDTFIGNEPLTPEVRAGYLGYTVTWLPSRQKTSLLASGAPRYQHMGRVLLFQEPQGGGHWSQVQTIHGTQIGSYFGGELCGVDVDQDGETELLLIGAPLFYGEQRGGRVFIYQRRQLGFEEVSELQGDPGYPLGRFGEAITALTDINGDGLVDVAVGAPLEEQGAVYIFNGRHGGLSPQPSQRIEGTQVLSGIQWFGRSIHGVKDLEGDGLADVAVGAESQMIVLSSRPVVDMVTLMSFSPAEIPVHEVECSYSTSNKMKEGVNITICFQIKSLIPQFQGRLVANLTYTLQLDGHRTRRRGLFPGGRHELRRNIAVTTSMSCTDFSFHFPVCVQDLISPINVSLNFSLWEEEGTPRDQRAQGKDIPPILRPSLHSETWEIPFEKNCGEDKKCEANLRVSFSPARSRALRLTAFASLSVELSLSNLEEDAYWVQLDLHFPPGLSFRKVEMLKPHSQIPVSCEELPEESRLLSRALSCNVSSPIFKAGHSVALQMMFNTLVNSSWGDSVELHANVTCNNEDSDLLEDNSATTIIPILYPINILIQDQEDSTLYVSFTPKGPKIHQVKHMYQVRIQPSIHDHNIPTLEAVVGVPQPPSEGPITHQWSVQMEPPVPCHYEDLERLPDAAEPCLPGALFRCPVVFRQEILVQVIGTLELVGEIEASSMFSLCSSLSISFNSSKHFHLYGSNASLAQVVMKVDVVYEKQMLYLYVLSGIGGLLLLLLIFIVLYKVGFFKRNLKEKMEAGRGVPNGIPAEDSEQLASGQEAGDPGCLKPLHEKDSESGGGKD
The experiment in a line: FACScan, Jurkat cells.

B1: GluL93Ala variant IgG1 (antibody, V domains shown)
VH: EVQLVESGGGLVQPGGSLRLSCAASGYSFTGHWMNWVRQAPGKGLEWVGMIHPSDSETRYNQKFKDRFTISVDKSKNTLYLQMNSLRAEDTAVYYCARGIYFYGTTYFDYWGQGTLVTVSS
VL: DIQMTQSPSSLSASVGDRVTITCRASKTISKYLAWYQQKPGKAPKLLIYSGSTLQSGVPSRFSGSGSGTDFTLTISSLQPEDFATYYCQQHNAYPLTFGQGTKVEIKR
Turning to B1, the Var.EC50/HuIgG1 EC50 stood at 2.9 with rhesus CD11a (rhesus) and 1.7 in the assay with human CD11a (human).

B2: H2C9 variant IgG1 (antibody, V domains shown)
VH: EVQLVESGGGLVQPGGSLRLSCAASGYSFTGHWMNWVRQAPGKGLEWVGMIAPAASNTRYNQKFKDRFTISVDKSKNTLYLQMNSLRAEDTAVYYCARGIYFYGTTYFDYWGQGTLVTVSS
VL: DIQMTQSPSSLSASVGDRVTITCRASKTISKYLAWYQQKPGKAPKLLIYSGSTLQSGVPSRFSGSGSGTDFTLTISSLQPEDFATYYCQQHNEYPLTFGQGTKVEIK
Turning to B2, the results for the Var.EC50/HuIgG1 EC50 with rhesus CD11a (rhesus) and in the assay with human CD11a (human) were 0.22 and 34.3, respectively.

B3: H2C7 variant IgG1 (antibody, V domains shown)
VH: EVQLVESGGGLVQPGGSLRLSCAASGYSFTGHWMNWVRQAPGKGLEWVGMIAPAASATRYNQKFKDRFTISVDKSKNTLYLQMNSLRAEDTAVYYCARGIYFYGTTYFDYWGQGTLVTVSS
VL: DIQMTQSPSSLSASVGDRVTITCRASKTISKYLAWYQQKPGKAPKLLIYSGSTLQSGVPSRFSGSGSGTDFTLTISSLQPEDFATYYCQQHNEYPLTFGQGTKVEIK
In the case of B3, the Var.EC50/HuIgG1 EC50 in the assay with rhesus CD11a (rhesus) amounted to 1.03; with human CD11a (human), 2.4.

B4: H2C5 variant IgG1 (antibody, V domains shown)
VH: EVQLVESGGGLVQPGGSLRLSCAASGYSFTGHWMNWVRQAPGKGLEWVGMIAPANSNTRYNQKFKDRFTISVDKSKNTLYLQMNSLRAEDTAVYYCARGIYFYGTTYFDYWGQGTLVTVSS
VL: DIQMTQSPSSLSASVGDRVTITCRASKTISKYLAWYQQKPGKAPKLLIYSGSTLQSGVPSRFSGSGSGTDFTLTISSLQPEDFATYYCQQHNEYPLTFGQGTKVEIK
In the case of B4, the Var.EC50/HuIgG1 EC50 with rhesus CD11a (rhesus) came out at 0.11; in the assay with human CD11a (human), 46.

B5: GluH56Ala variant IgG1 (antibody, V domains shown)
VH: EVQLVESGGGLVQPGGSLRLSCAASGYSFTGHWMNWVRQAPGKGLEWVGMIHPSDSATRYNQKFKDRFTISVDKSKNTLYLQMNSLRAEDTAVYYCARGIYFYGTTYFDYWGQGTLVTVSS
VL: DIQMTQSPSSLSASVGDRVTITCRASKTISKYLAWYQQKPGKAPKLLIYSGSTLQSGVPSRFSGSGSGTDFTLTISSLQPEDFATYYCQQHNEYPLTFGQGTKVEIK
In the case of B5, the Var.EC50/HuIgG1 EC50 with rhesus CD11a (rhesus) amounted to 0.3; with human CD11a (human) it was 4. In the assay with rhesus CD11a (rhesus), this molecule yielded a fold improvement in binding over HuIgG1 of 3 fold.

B6: AspH54Asn variant IgG1 (antibody, V domains shown)
VH: EVQLVESGGGLVQPGGSLRLSCAASGYSFTGHWMNWVRQAPGKGLEWVGMIHPSNSETRYNQKFKDRFTISVDKSKNTLYLQMNSLRAEDTAVYYCARGIYFYGTTYFDYWGQGTLVTVSS
VL: DIQMTQSPSSLSASVGDRVTITCRASKTISKYLAWYQQKPGKAPKLLIYSGSTLQSGVPSRFSGSGSGTDFTLTISSLQPEDFATYYCQQHNEYPLTFGQGTKVEIK
In the assay with rhesus CD11a (rhesus), B6 had a Variant EC50/HulgG1 EC50 of 0.1 and a fold improvement in binding over HuIgG1 of 10 fold. In the assay with human CD11a (human), this molecule came in with a Variant EC50/HulgG1 EC50 of 26.

B7: H2 variant IgG1 (antibody, V domains shown)
VH: EVQLVESGGGLVQPGGSLRLSCAASGYSFTGHWMNWVRQAPGKGLEWVGMIAPADAETRYNQKFKDRFTISVDKSKNTLYLQMNSLRAEDTAVYYCARGIYFYGTTYFDYWGQGTLVTVSS
VL: DIQMTQSPSSLSASVGDRVTITCRASKTISKYLAWYQQKPGKAPKLLIYSGSTLQSGVPSRFSGSGSGTDFTLTISSLQPEDFATYYCQQHNEYPLTFGQGTKVEIK
Regarding B7, in the assay with rhesus CD11a (rhesus), the Var.EC50/HuIgG1 EC50 was found to be 0.055 and the fold better binding than HuIgG1 was determined as 18 fold. Moreover, the Var.EC50/HuIgG1 EC50 in the assay with human CD11a (human) was 14.1.

B8: H2A1 variant IgG1 (antibody, V domains shown)
VH: EVQLVESGGGLVQPGGSLRLSCAASGYSFTGHWMNWVRQAPGKGLEWVGMIAPADSETRYNQKFKDRFTISVDKSKNTLYLQMNSLRAEDTAVYYCARGIYFYGTTYFDYWGQGTLVTVSS
VL: DIQMTQSPSSLSASVGDRVTITCRASKTISKYLAWYQQKPGKAPKLLIYSGSTLQSGVPSRFSGSGSGTDFTLTISSLQPEDFATYYCQQHNEYPLTFGQGTKVEIK
As to B8, in the assay with rhesus CD11a (rhesus), the Var.EC50/HuIgG1 EC50 was 0.013 and the fold improvement in binding over HuIgG1 was determined as 77 fold. The molecule further returned a Var.EC50/HuIgG1 EC50 with human CD11a (human) of 10.8.

B9: AspH54Gln variant IgG1 (antibody, V domains shown)
VH: EVQLVESGGGLVQPGGSLRLSCAASGYSFTGHWMNWVRQAPGKGLEWVGMIHPSQSETRYNQKFKDRFTISVDKSKNTLYLQMNSLRAEDTAVYYCARGIYFYGTTYFDYWGQGTLVTVSS
VL: DIQMTQSPSSLSASVGDRVTITCRASKTISKYLAWYQQKPGKAPKLLIYSGSTLQSGVPSRFSGSGSGTDFTLTISSLQPEDFATYYCQQHNEYPLTFGQGTKVEIK
For the molecule B9, the Variant EC50/HulgG1 EC50 with rhesus CD11a (rhesus) stood at 4.4; in the assay with human CD11a (human) it was 20.

B10: AspH54Ala variant IgG1 (antibody, V domains shown)
VH: EVQLVESGGGLVQPGGSLRLSCAASGYSFTGHWMNWVRQAPGKGLEWVGMIHPSASETRYNQKFKDRFTISVDKSKNTLYLQMNSLRAEDTAVYYCARGIYFYGTTYFDYWGQGTLVTVSS
VL: DIQMTQSPSSLSASVGDRVTITCRASKTISKYLAWYQQKPGKAPKLLIYSGSTLQSGVPSRFSGSGSGTDFTLTISSLQPEDFATYYCQQHNEYPLTFGQGTKVEIK
With B10, in the assay with rhesus CD11a (rhesus), the Var.EC50/HuIgG1 EC50 worked out at 0.3, the Variant EC50/HulgG1 EC50 was determined as 0.3 and the fold improvement in binding over HuIgG1 amounted to 3 fold. In addition, in the assay with human CD11a (human), the Var.EC50/HuIgG1 EC50 worked out at 147 and the Variant EC50/HulgG1 EC50 is 147.

B11: ThrH30Ala variant IgG1 (antibody, V domains shown)
VH: EVQLVESGGGLVQPGGSLRLSCAASGYSFAGHWMNWVRQAPGKGLEWVGMIHPSDSETRYNQKFKDRFTISVDKSKNTLYLQMNSLRAEDTAVYYCARGIYFYGTTYFDYWGQGTLVTVSS
VL: DIQMTQSPSSLSASVGDRVTITCRASKTISKYLAWYQQKPGKAPKLLIYSGSTLQSGVPSRFSGSGSGTDFTLTISSLQPEDFATYYCQQHNEYPLTFGQGTKVEIK
Take B11: the Var.EC50/HuIgG1 EC50 with rhesus CD11a (rhesus) was 1.3; with human CD11a (human) it was 1.7.

B12: H2C10 variant IgG1 (antibody, V domains shown)
VH: EVQLVESGGGLVQPGGSLRLSCAASGYSFTGHWMNWVRQAPGKGLEWVGMIAPAASSTRYNQKFKDRFTISVDKSKNTLYLQMNSLRAEDTAVYYCARGIYFYGTTYFDYWGQGTLVTVSS
VL: DIQMTQSPSSLSASVGDRVTITCRASKTISKYLAWYQQKPGKAPKLLIYSGSTLQSGVPSRFSGSGSGTDFTLTISSLQPEDFATYYCQQHNEYPLTFGQGTKVEIK
As to B12, the Var.EC50/HuIgG1 EC50 with rhesus CD11a (rhesus) amounted to 0.22; with human CD11a (human) it was 14.2.
